In the supplement of paper PMC10126150:
± gives the standard deviation of the averaged measurements.

Tested on: ATP
Assay: switch fluorescence ratio, 500 uM ATP over buffer (Cy3 cluster intensity, sum of 5 cycles each) (fold (ratio)); higher = stronger signal-on switching upon ATP binding; sequences stand for … in TCGTCGGCAGCGTCAGATGTGTATAAGAGACAGTTTTTTTTTTTTTTTTTTTTTTTTT…TC
Details: aptamer strand: ATP DNA aptamer (quencher-CACCTGGGGGAGTATTGCGGAGGAAGG + anchor), 100 nM annealed; ATP concentration: 500 uM
Method in brief: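 Between each of five buffer/ATP cycles, the flow-cell was stripped with NaOH and re-annealed. Each cycle imaged Cy3-labelled switching-strand clusters, annealed to 100 nM quencher-labelled ATP aptamer on a modified Illumina MiSeq flow-cell, first in selection buffer and then after 15 min with 500 uM ATP at 22 °C. The fluorescence ratio is summed target-cycle over summed buffer-cycle Cy3 intensity per cluster, averaged per switch-domain sequence, with clusters outside 100-1000 RFU excluded.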
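Further: ATP exposure 15 min at 22 °C before imaging.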

GGGGGCGGGT and GGGGGCTAAG are within error of each other in switch fluorescence ratio: 1 ± 0.044 for the first, 1.026 ± 0.0039 for the second.

GGGGGCTATG and GGGGGCTTAG are within error of each other in switch fluorescence ratio: 0.99 ± 0.015 for the first, 0.988 ± 0.038 for the second.

GGGGGGACGC and GGGGGGACTA are within error of each other in switch fluorescence ratio: 1.02 ± 0.013 for the first, 1.03 ± 0.031 for the second.

GGGGGGAGCC and GGGGGGATGA are within error of each other in switch fluorescence ratio: 0.996 ± 0.015 for the first, 0.992 ± 0.024 for the second.

GGGGGGCAAA and GGGGGGCAGA are the same in switch fluorescence ratio: 1 ± 0.015 for the first, 1 ± 0.029 for the second.

GGGGGGCATT and GGGGGGCGCA are within error of each other in switch fluorescence ratio: 0.99 ± 0.033 for the first, 1.02 ± 0.038 for the second.

GGGGGGCGCG and GGGGGGCTAG are within error of each other in switch fluorescence ratio: 1.01 ± 0.025 for the first, 1 ± 0.058 for the second.

GGGGGGGCAA and GGGGGGGCCA are within error of each other in switch fluorescence ratio: 1.24 ± 0.48 for the first, 1.01 ± 0.041 for the second.

GGGGGGGCTT and GGGGGGGGT are within error of each other in switch fluorescence ratio: 0.998 ± 0.031 for the first, 1 ± 0.02 for the second.

GGGGGGGGTA and GGGGGGTAGT are within error of each other in switch fluorescence ratio: 1 ± 0.044 for the first, 1.02 ± 0.067 for the second.

GGGGGGTATT and GGGGGGTGGG are within error of each other in switch fluorescence ratio: 0.987 ± 0.037 for the first, 0.996 ± 0.039 for the second.

GGGGGGTTCT and GGGGGGTTGT are within error of each other in switch fluorescence ratio: 1.01 ± 0.042 for the first, 1.03 ± 0.17 for the second.

GGGGGTAAAG and GGGGGTACCG are within error of each other in switch fluorescence ratio: 1.01 ± 0.022 for the first, 0.977 ± 0.021 for the second.

GGGGGTACCT and GGGGGTACGC are within error of each other in switch fluorescence ratio: 1.02 ± 0.019 for the first, 1.03 ± 0.028 for the second.

GGGGGTACTT and GGGGGTATGC are within error of each other in switch fluorescence ratio: 1 ± 0.03 for the first, 1.05 ± 0.15 for the second.

GGGGGTCACA and GGGGGTCATG are within error of each other in switch fluorescence ratio: 0.989 ± 0.029 for the first, 1.02 ± 0.073 for the second.

GGGGGTCCGT and GGGGGTGAAA are within error of each other in switch fluorescence ratio: 1 ± 0.025 for the first, 0.987 ± 0.011 for the second.

GGGGGTGACC and GGGGGTGAGG are within error of each other in switch fluorescence ratio: 1.02 ± 0.025 for the first, 1.01 ± 0.043 for the second.

First: GGGGGTGAGT
Second: GGGGGTGATC
The switch fluorescence ratio of the first is higher: 1.02 ± 0.012 for the first, 0.979 ± 0.024 for the second.

GGGGGTGCCT and GGGGGTGCGG are within error of each other in switch fluorescence ratio: 0.986 ± 0.064 for the first, 0.977 ± 0.044 for the second.

GGGGGTGGGA and GGGGGTGTAG are within error of each other in switch fluorescence ratio: 1 ± 0.019 for the first, 1.008 ± 0.0053 for the second.

GGGGGTTCAG and GGGGGTTGAT are within error of each other in switch fluorescence ratio: 0.978 ± 0.04 for the first, 0.991 ± 0.069 for the second.

GGGGGTTGGA and GGGGGTTTAC are the same in switch fluorescence ratio: 1.01 ± 0.032 for the first, 1.01 ± 0.013 for the second.

GGGGGTTTAT and GGGGGTTTTT are within error of each other in switch fluorescence ratio: 1.01 ± 0.017 for the first, 0.997 ± 0.033 for the second.

GGGGTAAAGG and GGGGTAAATT are within error of each other in switch fluorescence ratio: 1.04 ± 0.11 for the first, 1 ± 0.039 for the second.

GGGGTAACGT and GGGGTAAGGA are within error of each other in switch fluorescence ratio: 0.983 ± 0.02 for the first, 1 ± 0.021 for the second.

GGGGTAATTG and GGGGTACCGG are within error of each other in switch fluorescence ratio: 1.01 ± 0.019 for the first, 1.02 ± 0.032 for the second.

GGGGTACGCA and GGGGTACGGG are within error of each other in switch fluorescence ratio: 1.02 ± 0.015 for the first, 1.05 ± 0.024 for the second.

Going from GGGGTACGGT to GGGGTAGCGG, the switch fluorescence ratio falls from 1 ± 0.018 to 0.92645 ± 0.0002.

GGGGTAGGGT and GGGGTAGGTA are within error of each other in switch fluorescence ratio: 0.997 ± 0.032 for the first, 0.96 ± 0.038 for the second.

GGGGTAGTAC and GGGGTAGTTG are within error of each other in switch fluorescence ratio: 1.03 ± 0.026 for the first, 0.99 ± 0.028 for the second.

GGGGTATATC and GGGGTATATT are within error of each other in switch fluorescence ratio: 1 ± 0.024 for the first, 0.9938 ± 0.0062 for the second.

GGGGTATGCC and GGGGTATGGC are within error of each other in switch fluorescence ratio: 1.01 ± 0.027 for the first, 1.03 ± 0.023 for the second.

GGGGTATGTA and GGGGTCACTA are within error of each other in switch fluorescence ratio: 0.987 ± 0.055 for the first, 0.9559 ± 0.009 for the second.

GGGGTCAGAC and GGGGTCAGGG are within error of each other in switch fluorescence ratio: 1 ± 0.022 for the first, 1.02 ± 0.026 for the second.

GGGGTCATGC and GGGGTCGCTG are within error of each other in switch fluorescence ratio: 0.97 ± 0.041 for the first, 0.965 ± 0.013 for the second.

Compared with GGGGTCGGCC, GGGGTCGTCA is higher in switch fluorescence ratio: 0.995 ± 0.018 for the first, 1.04 ± 0.0072 for the second.

GGGGTCGTCT and GGGGTCTAAT are within error of each other in switch fluorescence ratio: 1.02 ± 0.015 for the first, 0.999 ± 0.048 for the second.

GGGGTCTGAG and GGGGTCTTAT are within error of each other in switch fluorescence ratio: 0.989 ± 0.019 for the first, 0.996 ± 0.038 for the second.

GGGGTGAAGC and GGGGTGAAT are within error of each other in switch fluorescence ratio: 1.02 ± 0.036 for the first, 1.01 ± 0.021 for the second.

GGGGTGAC and GGGGTGAGAA are within error of each other in switch fluorescence ratio: 1.0027 ± 0.00099 for the first, 1.02 ± 0.046 for the second.

GGGGTGAGCC and GGGGTGAGGT are within error of each other in switch fluorescence ratio: 0.978 ± 0.017 for the first, 0.997 ± 0.016 for the second.

GGGGTGCACG and GGGGTGCCTT are within error of each other in switch fluorescence ratio: 0.988 ± 0.051 for the first, 1.037 ± 0.0021 for the second.

GGGGTGCGCG and GGGGTGCGGG are within error of each other in switch fluorescence ratio: 0.968 ± 0.025 for the first, 0.99 ± 0.032 for the second.

Compared with GGGGTGGTAG, GGGGTGGTGG is lower in switch fluorescence ratio: 1.01 ± 0.012 for the first, 0.9888 ± 0.007 for the second.

GGGGTGGTTG and GGGGTGTATA are within error of each other in switch fluorescence ratio: 0.986 ± 0.036 for the first, 1 ± 0.045 for the second.

GGGGTGTATT and GGGGTGTCTT are within error of each other in switch fluorescence ratio: 0.984 ± 0.025 for the first, 0.992 ± 0.031 for the second.

GGGGTGTGCG and GGGGTGTTCA are within error of each other in switch fluorescence ratio: 0.9883 ± 0.0051 for the first, 0.999 ± 0.047 for the second.

GGGGTGTTGG and GGGGTTAGCG are within error of each other in switch fluorescence ratio: 1.01 ± 0.019 for the first, 0.991 ± 0.021 for the second.

GGGGTTAGTT and GGGGTTATAA are within error of each other in switch fluorescence ratio: 0.993 ± 0.023 for the first, 0.998 ± 0.043 for the second.
